Tests used:
[1] = target: T1, carcinoembryonic antigen (CEA) (UniProt P06731 35-685, limits assumed, biotinylated (labelled form); unlabelled CEA (Calbiochem) used as competitor in the off-rate assays); assay: yeast surface display, equilibrium titration with biotinylated CEA, flow cytometry
T1 construct: also called biotinylated-CEA; bio-CEA
T1 sequence (looked up): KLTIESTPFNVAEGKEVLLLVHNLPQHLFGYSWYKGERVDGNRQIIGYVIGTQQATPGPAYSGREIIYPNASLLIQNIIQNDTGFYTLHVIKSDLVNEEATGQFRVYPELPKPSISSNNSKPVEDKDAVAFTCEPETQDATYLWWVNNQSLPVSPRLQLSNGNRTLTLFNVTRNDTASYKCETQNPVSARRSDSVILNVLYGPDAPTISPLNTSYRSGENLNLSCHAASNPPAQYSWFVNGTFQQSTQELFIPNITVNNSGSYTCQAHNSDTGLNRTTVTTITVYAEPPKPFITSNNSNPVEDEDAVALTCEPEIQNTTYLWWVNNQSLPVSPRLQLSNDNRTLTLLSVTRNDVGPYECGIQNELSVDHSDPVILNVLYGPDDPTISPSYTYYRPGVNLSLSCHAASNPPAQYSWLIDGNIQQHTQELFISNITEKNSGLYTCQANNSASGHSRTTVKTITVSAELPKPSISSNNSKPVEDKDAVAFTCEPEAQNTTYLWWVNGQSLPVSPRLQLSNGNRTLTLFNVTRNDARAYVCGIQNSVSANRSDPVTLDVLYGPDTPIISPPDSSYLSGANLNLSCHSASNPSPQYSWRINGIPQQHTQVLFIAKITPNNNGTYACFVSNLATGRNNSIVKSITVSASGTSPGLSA

[2] = target: T1, carcinoembryonic antigen (CEA); assay: yeast surface display, off-rate analysis with biotinylated CEA and excess unlabelled CEA, flow cytometry

- Kd [1]: 0.03 nM
- koff [2]: 1.2e-06 s⁻¹
B1: sm3E (scFv)
scFv: PYDVPDYALQASGGGGSGGGGSGGGGSASQVKLEQSGAEVVKPGASVKLSCKASGFNIKDSYMHWLRQGPGQRLEWIGWIDPENGDTEYAPKFQGKATFTTDTSANTAYLGLSSLRPEDTAVYYCNEGTPTGPYYFDYWGQGTLVTVSSGGGGSGGGGSGGGGSENVLTQSPSSMSVSVGDRVTIACSASSSVPYMHWLQQKPGKSPKLLIYLTSNLASGVPSRFSGSGSGTDYSLTISSVQPEDAATYYCQQRSSYPLTFGGGTKLEIKAAAGSEQKLISEEDL
notes: also called stabilized m3E

Reference: patent publication US20050147614A1 (CANCER RESEARCH TECHNOLOGY, published 2005)
